Laboratory results taken from PMC3091828 (Biochemistry, 2011).
Each block holds one binder with its values, some of them ahead of it.

Biological target: MBP-parkin (UniProt O60260 1-465)
Assay: fluorescence polarisation

Chain of MBP-parkin (O60260 whole entry): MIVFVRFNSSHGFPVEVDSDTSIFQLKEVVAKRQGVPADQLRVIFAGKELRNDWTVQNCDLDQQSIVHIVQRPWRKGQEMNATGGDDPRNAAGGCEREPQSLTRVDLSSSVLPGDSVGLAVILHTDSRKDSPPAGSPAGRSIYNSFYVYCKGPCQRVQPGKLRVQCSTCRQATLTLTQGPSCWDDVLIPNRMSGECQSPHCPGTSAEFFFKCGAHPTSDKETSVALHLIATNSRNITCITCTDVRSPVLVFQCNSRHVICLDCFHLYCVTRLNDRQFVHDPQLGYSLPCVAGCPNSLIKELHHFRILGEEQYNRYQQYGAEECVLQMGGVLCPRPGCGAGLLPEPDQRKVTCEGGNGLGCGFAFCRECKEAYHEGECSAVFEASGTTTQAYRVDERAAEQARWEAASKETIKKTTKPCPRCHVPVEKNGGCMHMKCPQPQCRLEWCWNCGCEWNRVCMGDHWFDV

- Kd: 15.5 µM
B1: CL-arrestin-1-F79C, bimane-labeled (natural protein)
chain: MKANKPAPNHVIFKKISRDKSVTIYLGKRDYIDHVERVEPVDGVVLVDPELVKGKRVYVSLTAAFRYGQEDIDVMGLSCRRDLYFSQVQVFPPVGASGATTRLQESLIKKLGANTYPFLLTFPDYLPSSVMLQPAPQDVGKSAGVDFEIKAFATHSTDVEEDKIPKKSSVRLLIRKVQHAPRDMGPQPRAEASWQFFMSDKPLRLAVSLSKEIYYHGEPIPVTVAVTNSTEKTVKKIKVLVEQVTNVVLYSSDYYIKTVAAEEAQEKVPPNSSLTKTLTLVPLLANNRERRGIALDGKIKHEDTNLASSTIIKEGIDKTVMGILVSYQIKVKLTVSGLLGELTSSEVATEVPFRLMHPQPEDPDTAKESFQDENFVFEEFARQNLKDAGEYKEEKTDQEAAMDE
modifications: monobromobimane label on the unique cysteine (F79C)

- Kd: 3.36 µM
B2: CL-arrestin-3-F88C, bimane-labeled (natural protein, UniProt P32120-2 1-409, looked up)
chain: MGEKPGTRVFKKSSPNSKLTVYLGKRDFVDHLDKVDPVDGVVLVDPDYLKDRKVFVTLTVAFRYGREDLDVLGLSFRKDLFIANYQACPPTPNPPRPPTRLQERLLRKLGQHAHPFFFTIPQNLPSSVTLQPGPEDTGKALGVDFEIRAFVAKSLEEKSHKRNSVRLVIRKVQFAPEKPGPQPSAETTRHFLMSDRSLHLEASLDKELYYHGEPLNVNVHVTNNSTKTVKKIKVSVRQYADIVLFSTAQYKVPVAQVEQDDQVSPSSTFSKVYTITPLLSNNREKRGLALDGKLKHEDTNLASSTIVKEGANKEVLGILVSYRVKVKLVVSRGGDVSVELPFVLMHPKPHDHIALPRPQSAAPETDAPVDTNLIEFETNYATDDDIVFEDFARLRLKGLKDEDYDDQFS
modifications: monobromobimane label on the unique cysteine (F88C)
